Data published in patent publication US20240117011A1 (US Dept. of Health and Human Services, published 2024).

Tests used:
[1] = target: spike of variant B.1.1.345 on pseudotyped lentiviral particles; test: cell-based or functional assay
[2] = target: full-length spike B.1.617.2 (SARS-CoV-2, UniProt P0DTC2 13-1273); test: cell-based or functional assay

B1: A19-46.1 (antibody, V domains shown)
VH: QVQLVESGGGVVQPGRSLRLSCAASGFTLSSYGMHWVRQAPGKGLEWVAVISYDGSNKYYVDSVKGRFTISRDNSKNTLYLQMNSLRAEDTAVYYCARGWAYWELLPDYYYGMDVWGQGTTVTVSS
VL: QTVVTQEPSFSVSPGGTVTLTCGLSSGSVSTAYFPSWYQQTPGQAPRTLIYGTNTRSSGVPDRFSGSILGNKAALTITGAQADDESDYYCVLYMGRGIVVFGGGTKLTVL
- pseudotyped virus neutralization IC50 [1]: 0.095 µg/mL
- neutralization IC50 [2]: > 10 µg/mL
